Positions count from the first letter of the chain named.
B1: Mt probe (three W-boxes mutated) (dsDNA)
DNA 1: TCAACCCGGGGGACACATGGTCCCGGGATCTCCTCTCCTCCTCTTCTTCTCCATCTTCTAATTTTTTCAACCCCGGGACTT
DNA 2: AAGTCCCGGGGTTGAAAAAATTAGAAGATGGAGAAGAAGAGGAGGAGAGGAGATCCCGGGACCATGTGTCCCCCGGGTTGA
B2: 3x third W-box (W3) (dsDNA)
DNA 1: CAACGGTCAAACTTCAACGGTCAAACTTCAACGGTCAAACTT
DNA 2: AAGTTTGACCGTTGAAGTTTGACCGTTGAAGTTTGACCGTTG
B3: GCC-box (dsDNA)
DNA 1: CATAAGAGCCGCCACT
DNA 2: AGTGGCGGCTCTTATG
B4: 3x second W-box (W2) (dsDNA)
DNA 1: TGGTCTGACCATCTTGGTCTGACCATCTTGGTCTGACCATCT
DNA 2: AGATGGTCAGACCAAGATGGTCAGACCAAGATGGTCAGACCA
B5: 3x first W-box (W1) (dsDNA)
DNA 1: TCAAAGTCAAGGACTCAAAGTCAAGGACTCAAAGTCAAGGAC
DNA 2: GTCCTTGACTTTGAGTCCTTGACTTTGAGTCCTTGACTTTGA
B6: 33probe (WT) (dsDNA)
DNA 1: TCAAAGTCAAGGACACATGGTCTGACCATCTCCTCTCCTCCTCTTCTTCTCCATCTTCTAATTTTTTCAACGGTCAAACTT
DNA 2: AAGTTTGACCGTTGAAAAAATTAGAAGATGGAGAAGAAGAGGAGGAGAGGAGATGGTCAGACCATGTGTCCTTGACTTTGA
B7: W1m4 probe (dsDNA)
DNA 1: B6 DNA 1 with G6A
DNA 2: B6 DNA 2 with C76T
B8: W-box probe (Fig 12b) (dsDNA)
DNA 1: B6 DNA 1
DNA 2: B6 DNA 2
B9: W1m1 probe (dsDNA)
DNA 1: B6 DNA 1 with A9T
DNA 2: B6 DNA 2 with T73A
B10: W1m5 probe (dsDNA)
DNA 1: B6 DNA 1 with A5C, G6C, T7C, C8G, A9G, A10G
DNA 2: B6 DNA 2 with T72C, T73C, G74C, A75G, C76G, T77G
B11: W1m2 probe (dsDNA)
DNA 1: B6 DNA 1 with C8G
DNA 2: B6 DNA 2 with G74C
B12: W1m3 probe (dsDNA)
DNA 1: B6 DNA 1 with T7G
DNA 2: B6 DNA 2 with A75C

Key:
BnWRKY15 [1] = molecular target: T1, BnWRKY15 (Brassica napus, UniProt A0A291B474 1-319); test: EMSA; Beyotime EMSA binding buffer (composition, pH not stated), 40 nM Cy5 DNA probe, room temperature; 6% native PAGE in ice water bath; details: protein: recombinant; tags: 6xHis (pET-32a fusion); label: Cy5
T1 sequence (A0A291B474 entry or part of it): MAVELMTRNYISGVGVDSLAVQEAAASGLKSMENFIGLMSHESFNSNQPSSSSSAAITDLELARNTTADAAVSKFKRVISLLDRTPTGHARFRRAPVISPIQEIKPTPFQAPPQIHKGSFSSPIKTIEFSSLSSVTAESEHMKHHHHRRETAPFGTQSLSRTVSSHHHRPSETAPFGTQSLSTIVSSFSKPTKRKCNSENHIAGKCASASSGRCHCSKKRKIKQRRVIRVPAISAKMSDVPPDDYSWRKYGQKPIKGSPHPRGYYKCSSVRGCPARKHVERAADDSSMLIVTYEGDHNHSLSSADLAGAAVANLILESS

BnWRKY15 [2] = molecular target: T1, BnWRKY15; test: competition; unlabelled competitor against Cy5-33probe; Beyotime EMSA binding buffer (composition, pH not stated), 40 nM Cy5 DNA probe, room temperature; 6% native PAGE in ice water bath; details: protein: recombinant; tags: 6xHis (pET-32a fusion); label: unlabelled
BnWRKY15 [3] = molecular target: T1, BnWRKY15; test: EMSA; competed by unlabelled 33probe (12.5x, 25x); Beyotime EMSA binding buffer (composition, pH not stated), 40 nM Cy5 DNA probe, room temperature; 6% native PAGE in ice water bath; details: protein: recombinant; tags: 6xHis (pET-32a fusion); label: Cy5
BnWRKY15 [4] = molecular target: T1, BnWRKY15; test: EMSA; alone; also outcompetes equal BnWRKY33; Beyotime EMSA binding buffer (composition, pH not stated), 40 nM Cy5 DNA probe, room temperature; 6% native PAGE in ice water bath; details: protein: recombinant; tags: 6xHis (pET-32a fusion); label: Cy5

Row | Binder | binding result (BnWRKY15 [1]) | further results
1 | B1 | no binding | 
2 | B2 | binds | 
3 | B3 |  | binding result (BnWRKY15 [2]): no binding
4 | B4 | binds | 
5 | B5 | binds | 
6 | B6 |  | binding result (BnWRKY15 [3]): binds
7 | B7 | binds | 
8 | B8 |  | binding result (BnWRKY15 [4]): binds
9 | B9 | binds | 
10 | B10 | binds | 
11 | B11 | binds | 
12 | B12 | binds | 
